The assay addresses fibrinogen receptor on platelets (Homo sapiens (Human)) (UniProt P08514).

The substance chrysoptin gave an IC50 of inhibition of platelet aggregation induced by 5 µM ADP of 16 nM.

The values above are taken from US5294543.
